Test: soluble on expression in E. coli; label from the status in PepcDB or PDB records

**Q.** For “GSHMKITYPLPPNLPEQLPLLTNCQLEDEAILENHLYQQIDLPNQEVRNLVFRDAVFDHLSLANGQFASFDCSNVRFEACDFSNVEWLSGSFHRVTFLRCNLTGTNFADSYLKDCLFEDCKADYASFRFANFNLVHFNQTRLVESEFFEVTWKKLLLEACDLTESNWLNTSLKGLDFSQNTFERLTFSPNYLSGLKVTPEQAIYLASALGLVIT”, which “soluble on expression in E. coli” value is on record?
**A.** Its value is “soluble”.

**Q.** With “MLGSSSLSIRTTDDKSLFARTMDFTMEPDSKVIIVPRNYGIRLLEKENVVINNSYAFVGMGSTDITSPVLYDGVNEKGLMGAMLYYATFATYADEPKKGTRGINPVYVISQVLGNCVTVDDVIEKLTSYTLLNEANIILGFAPPLHYTFTDASGESIVIEPDKTGITIHRKTIGVMTNSPGYEWHQTNLRAYIGVTPNPPQDIMMGDLDLTPFGQGAGGLGLPGDFTPSARFLRVAYWKKYTEKAKNETEGVTNLFHILSSVNIPKGVVLTNEGKTDYTIYTSAMCAQSKNYYFKLYDNSRISAVSLMAENLNSQDLITFEWDRKQDIKQLNQVNVMS” as the sequence, how does the “soluble on expression in E. coli” value read?
**A.** Its value is “soluble”.

**Q.** With “MGSDKIHHHHHHMLTTDNQLIRLSQGQLNLLETCPRKFQHTHLEQLNSPLDPDHTDKLTLGSRFHLLMQQQEMGLPIDSFLQADTQLQNWMSGFANAAPEILTPATDRQTFRESEHYRTLQFQDYLLTVIYDLLIADHQQAQIFDWKTYPKPPDKRKLAQNWQTRLYMYVLAETSQYSPENISMTYWFVQSQGKPQNIQFTYSHNLHTQTAKKLHQLLDQLTKWLNNYQQGTLFPQVPVNSKACDYCQFAKKCDRLLPTVGHKLNSSESNSLEITAQAINKSFPALDAIEEVSI” as the sequence, how does the “soluble on expression in E. coli” value read?
**A.** Its value is “not soluble”.

**Q.** With “MGSDKIHHHHHHMYEEIIEKLDLQMNRMISFLSKKMRLFFQDLEKRFTNRAILLYGPRGAGKTTFLLSMARKHGFLYVSGDEILLLDVPLHDLFQEIMKNYPGIIIDEVHLLKNWSTILKVLYDSFPDKVIWTSDSSSVLLRKGISDLSRRFVLIRMPLMSFREFIHFETGKTLRKLSSPFEVSIDYAAEALKEVDLMSLFRKYRETGTRPFYVEGNFREKLMNILQKAIYYDVPHFLGTVTENHLGVMKAIVGHLLHSKIPTINVESMCREWGVGKQKFYQLLQTMEEIELVNIVRKKRVEKPFSKGEKIFLSDPAMYYAFEGEIGNFREAFVVFALKEIGKIYAVKNEEEGDYVFEGIKIEVGGKSKKKKSSDFVIRDDVDLPVRNVIPMWMLGMLW” as the sequence, how does the “soluble on expression in E. coli” value read?
**A.** The value was “not soluble”.

**Q.** With “MEVQFKNTRKGYYLNSERIELHKGDVVAVEANPGHDIGTVTLTGKLVKLQMRKHRYNTNNGEPFKIYRIAKQGDLDKYCEAKAREYDTMIQSRQISAELNLDMKIGDVEYQGDGNKAIFYYIADERVDFRQLIRVLAETFHIRVEMKQIGARQEAGRIGGIGPCGRQLCCSAWKMNFVSVNTSAARYQDLALNPQKLTGLCAKLKCCLNYEVDAYVEARKKMPSPEIVLETKESAYHYFKADVFRREVSYSTVPNAPVNLTTISARRAFEVISQNKQGFKPVSLEYDDKKQSSGHELSDILTDNSLTRFDDALSRRRRRNGNGNRDFSDREKAGEPHRTPDSIQPTPRVRSSSRMPSREKSPRPEGGDRRENMRERSRGDARFARPYTNEGGSERMEGARRVVGSGRRPPRQSTPRQEDRQGERKEELEHHHHHH” as the sequence, how does the “soluble on expression in E. coli” value read?
**A.** The value was “soluble”.

**Q.** Which “soluble on expression in E. coli” value does the source give for “MGSDKIHHHHHHMKPTLFVLAAGMGSRYGSLKQLDGIGPGGDTIMDYSVYDAIRAGFGRLVFVIRHSFEKEFREKILTKYEGRIPVELVFQELDRLPEGFSCPEGREKPWGTNHAVLMGRDAIREPFAVINADDFYGRNGFEVLARKLMTLEGKQGEYCMVGYRVGNTLSESGGVSRGVCQVDEKHLLTGVVERTGIERTDGTISFRDETGKICTLAEDAPVSMNMWGFTPDYFDYSEELFINFLNAHGQEPKSEFFIPFVVNDLIRSGRASVEVLDTTARWFGVTYSDDRPGVVAKLRELTEAGEYPTKLF” here?
**A.** Its value is “not soluble”.

**Q.** With “MLWKEYEEASSLTARVVKHLDKFDMIVQADKYEKTHEIDLQQFFTSTVGVLKMEPFATWDRELRENRMKRINKAE” as the sequence, how does the “soluble on expression in E. coli” value read?
**A.** Its value is “not soluble”.

**Q.** For “MSKSTAEIRQAFLDFFHSKGHQVVASSSLVPHNDPTLLFTNAGMNQFKDVFLGLDKRNYSRATTSQRCVRAGGKHNDLENVGYTARHHTFFEMLGNFSFGDYFKHDAIQFAWELLTSEKWFALPKERLWVTVYESDDEAYEIWEKEVGIPRERIIRIGDNKGAPYASDNFWQMGDTGPCGPCTEIFYDHGDHIWGGPPGSPEEDGDRYIEIWNIVFMQFNRQADGTMEPLPKPSVDTGMGLERIAAVLQHVNSNYDIDLFRTLIQAVAKVTGATDLSNKSLRVIADHIRSCAFLIADGVMPSNENRGYVLRRIIRRAVRHGNMLGAKETFFYKLVGPLIDVMGSAGEDLKRQQAQVEQVLKTEEEQFARTLERGLALLDEELAKLSGDTLDGETAFRLYDTYGFPVDLTADVCRERNIKVDEAGFEAAMEEQRRRAREASGFGADYNAMIRVDSASEFKGYDHLELNGKVTALFVDGKAVDAINAGQEAVVVLDQTPFYAESGGQVGDKGELKGANFSFAVEDTQKYGQAIGHIGKLAAGSLKVGDAVQADIDEARRARIRLNHSATHLMHAALRQVLGTHVSQKGSLVNDKVLRFDFSHNEAMKPEEIRAVEDLVNAQIRRNLPIETNIMNLEAAKAKGAMALFGEKYDERVRVLSMGDFSTELCGGTHASRTGDIGLFRIISESGTAAGVRRIEAVTGEGAITTVHADSDRLSEVAHLLKGDSNNLADKVRSVLERTRQLEKELQQLKEQAAAQESANLSSKAIDVNGVKLLVSELSGVEPKMLRTMVDDLKNQLGSTIIVLATVAEGKVSLIAGVSKDVTDRVKAGELIGMVAQQVGGKGGGRPDMAQAGGTDAAALPAALASVKGWVSAKLQ”, which “soluble on expression in E. coli” value is on record?
**A.** The value was “not soluble”.

**Q.** Which “soluble on expression in E. coli” value does the source give for “MSQDFVTLVSKDDKEYEISRSAAMISPTLKAMIEGPFRESKGRIELKQFDSHILEKAVEYLNYNLKYSGVSEDDDEIPEFEIPTEMSLELLLAADYLSI” here?
**A.** Its value is “soluble”.

**Q.** With “MEFAGTIFIELTFTPKVPRLNRDDLNKEMDRLDSSMAMRPIPPLPTESEYDYVHGSTMRQITPQCVSTSHEDKDEGQPYRNGNVFSMSSKSDTAVLANSNDPIILPPTFSASMGTTSTLETNDTAISNTSNTKFHFANLRKLKEKINIFKNPDSST” as the sequence, how does the “soluble on expression in E. coli” value read?
**A.** The value was “not soluble”.

**Q.** Which “soluble on expression in E. coli” value does the source give for “SVGGGGSGGGLLENANPLIYERSGERPVTAGEEDEEVPDSIDAREIFDLIRSINDPEHPLTLEELNVVEQVRIQVSDPESTVAVAFTPTIPHCSMATLIGLSIKVKLLRSLPQRFKMDVHITPGTHASEHAVNKQLADKERVAAALENTHLLEVVNQCLSARS” here?
**A.** The value was “soluble”.

**Q.** Which “soluble on expression in E. coli” value does the source give for “VRSMGFLHRACRAPSSLPAPLMARPGRSVLARPAATPPGPLCATTRPRPPQGNQPPASRISNFPPKRHKTRVLAAAEDEVSAAVAALISAHGRRHHSLNNQAAAFHGQFAQNLNVGAGSCASAETTADAPTQALLGPADRQRRQRRAVRQWLVRWAAHPGRATRGFHNHRQ” here?
**A.** Its value is “not soluble”.

**Q.** For “MSLTTVLGIETSCDETGVGIARLDPDGTVTLLADEVASSVDEHVRFGGVVPEIASRAHLEALGPAMRRALAAAGLKQPDIVAATIGPGLAGALLVGVAAAKAYSAAWGVPFYAVNHLGGHLAADVYEHGPLPECVALLVSGGHTHLLHVRSLGEPIIELGSTVDDAAGEAYDKVARLLGLGYPGGKALDDLARTGDRDAIVFPRGMSGPADDRYAFSFSGLKTAVARYVESHAADPGFRTADIAAGFQEAVADVLTMKAVRAATALGVSTLLIAGGVAANSRLRELATQRCGEAGRTLRIPSPRLCTDNGAMIAAFAAQLVAAGAPPSPLDVPSDPGLPVMQGQVEGHHHHHH”, which “soluble on expression in E. coli” value is on record?
**A.** The value was “soluble”.

**Q.** For “MFQIKKAAVLGSGVMGSGIAAHLANIGIPTLLLDIVPPALTKEEEAKGLTLEHKSVRNRFSNTAVQKLLKQKPAPLTVKGNLALIEAGNLEDDLERLADVDWIIEVVVENLDIKKKLFEKVDAVRKPGSIVSSNTSGISVEKMAEGRSDDFQKHFLGTHFFNPPRYLKLLEVIPTKKTDPQVLSFMKLFGEDVLGKGVVIAKDTPNFIGNRIGTYGLLVTLQEMVKRGYSIGEVDSVTGPLIGRPKSATFRTLDVVGLDTFVYVANNVYENVQEKERDVFKVPAFMHDMLDKKWLGSKTGQGFFLKQGKEILELNPETMEYEARKKLKAASIELSKQEKGLSNKLKALVYAKDRAGELLWNIITPTLLYSAKLHKEIADDIVAIDQAMKWGFGWEQGPFEVWDAIGVEKSVQKMEESGAVIPAWVKEMLEKGFTTFYKHDNGDSYYYDNGEYKLIECNKKAISLKQLKAKNGVLKKNSGASLIDLGDGILCLEFHSKSNAIGMDITQMINYAVDEVEKNYKGLVIGNQSKNFCVGANLAMILMEAQDDNYFEIEWVVKNFQDAMMKIKYSSKPVVAAPYGMTLGGGTEVCLPAASIQASSETYMGLVEVGVGLIPGGGGNKELYIKHLNKMANGVEFDLQKVANKVFETVAMAKVLTSGQEAVSHNFLGDKDGISVNGDHLLYDAKQKALALYEAGYKAPIRKKIPVVGETGYATLALGAEAMHLSGYISEYDLHIAKKLAYVIAGGKVPYGTEVDEQYLLDVEREAFISLVSEMKSQARMQHMLVKGKPLRN”, which “soluble on expression in E. coli” value is on record?
**A.** Its value is “not soluble”.

**Q.** With “MRKGINMTAELLVNVTPSETRVAYIDGGILQEIHIEREARRGIVGNIYKGRVSRVLPGMQAAFVDIGLDKAAFLHASDIMPHTECVAGEEQKQFTVRDISELVRQGQDLMVQVVKDPLGTKGARLTTDITLPSRYLVFMPGASHVGVSQRIESESERERLKKVVAEYCDEQGGFIIRTAAEGVGEAELASDAAYLKRVWTKVMERKKRPQTRYQLYGELALAQRVLRDFADAELDRIRVDSRLTYEALLEFTSEYIPEMTSKLEHYTGRQPIFDLFDVENEIQRALERKVELKSGGYLIIDQTEAMTTVDINTGAFVGHRNLDDTIFNTNIEATQAIARQLRLRNLGGIIIIDFIDMNNEDHRRRVLHSLEQALSKDRVKTSVNGFSALGLVEMTRKRTRESIEHVLCNECPTCHGRGTVKTVETVCYEIMREIVRVHHAYDSDRFLVYASPAVAEALKGEESHSLAEVEIFVGKQVKVQIEPLYNQEQFDVVMM” as the sequence, how does the “soluble on expression in E. coli” value read?
**A.** Its value is “not soluble”.

**Q.** Which “soluble on expression in E. coli” value does the source give for “MEVHDSDAYKADEKEEEKAEEVELDDSDVESEEESEDEESDEDPEDGPAPRRFETFDDAKQFWAEHFEEELIPNEDLDLNCYLFNPNGEPVVPQPVKRAMNPRSLFNNQRPVQVYHQRWELLPNEEAEHWKEMWVQMRDEQREQIEEQLIEFRYSSKS” here?
**A.** Its value is “not soluble”.

**Q.** Which “soluble on expression in E. coli” value does the source give for “MGSDKIHHHHHHMQERLIRLLEAIAGAANPPNATDLAQLTGLPRATIYRNISSLVDCGFVEVTDCGSRYVLGMRFVKIALTGKSDMHVINAVSAMMQQVVKTSGETGFLARYRGGRVDLIHIETPADPSLSYIYPGLGPRPAHACSSAKAIAAFITPELRDELLDIQPMRFNQNTITDPDQIQRELNQVRRYGYAICDGEIDEGVSSVAVPINVDRLGAIFSMGVVGPSNRIKPMVQNRILPVLSAEAVRAAAAIQHCSVVDAETTNAEALADAREGLNKTH” here?
**A.** Its value is “not soluble”.

**Q.** With “MGSDKIHHHHHHMAKIDFRNKINWRRRFRSPPRVETERDILRIFESDRGRIVNSPAIRRLQQKTQVFPLERNAAVRTRLTHSLEVQQVGRYIAKEVLSRLKELRLLEEYGLEELTGPFESVVEMACLMHDIGNPPFGHFGEAAINDWFRQRLAPGDALGQPLTDDRCEVQALRLHDGETSLNALRRKVRQDLCSFEGNAQGIRLVHTLMRMNLTWAQVGCILKYTRPAWWSEETPASHSYLMKKPGYYLAEEEYVARLRKELDLAPYNRFPLTWIMEAADDISYCVADLEDAVEKRIFSAEQLYQHLYDAWGSHEKGSLFSQVVENAWEKSRANYLKQSAEDQFFMYLRVNTLNKLVPYAARRFIDNLPAIFTGDFNHALLEDDSDCSQLLELYKNVAMKQVFSHPDVEQLELQGYRVISGLLDIYQPLLKLSLEDFSELVAQERVRRLPIASRLYQKLSTRHRLAYVEAVNKLARTAPEFALMEYYYRCRLIQDYISGMTDLYAWDEYRRLMAVE” as the sequence, how does the “soluble on expression in E. coli” value read?
**A.** Its value is “not soluble”.

Source: the DeepSol protein solubility set
